This is an account of results in IntAct's records for PubMed 35850301.

To fix the notation:
B1: Maternal protein pumilio (Drosophila melanogaster (Fruit fly)), P25822 (parent)
chain: MKFLGGNDDRNGRGGVGVGTDAIVGSRGGVSQDAADAAGAAAAAAVGYVFQQRPSPGGVGVGVGGVGGGVPGVGAVGSTLHEAAAAEYAAHFAQKQQQTRWACGDDGHGIDNPDKWKYNPPMNPANAAPGGPPGNGSNGGPGAIGTIGMGSGLGGGGGGGAGGGNNGGSGTNGGLHHQSMAAAAANMAAMQQAAALAKHNHMISQAAAAVAAQQQHQHPHQQHPQQQQQQQQAQNQGHPHHLMGGGNGLGNGNGLGIQHPGQQQQQQQQQQQQQHPGQYNANLLNHAAALGHMSSYAQSGGSMYDHHGGAMHPGMNGGMPKQQPLGPPGAGGPQDYVYMGGQTTVPMGAAMMPPQNQYMNSSAVAAANRNAAITTSTAKKLWEKSDGKGVSSSTPGGPLHPLQIPGIGDPSSVWKDHTWSTQGENILVPPPSRAYAHGGASDTSNSGNAGILSPRDSTCAKVVEYVFSGSPTNKDSSLSGLEPHLRNLKFDDNDKSRDDKEKANSPFDTNGLKKDDQVTNSNGVVNGIDDDKGFNRTPGSRQPSPAEESQPRPPNLLFPPLPFNHMLMDHGQGMGGGLGGVVGSGNGVGGGSGGGGAGGAYAAHQQMAAQMSQLQPPMMNGVGGGMPMAAQSPMLNHQAAGPNHMESPGNLLQQQNFDVQQLFRSQNPGLAAVATNAAAAAAAAAAATSAASAAAAVGAPPVPNGSLQQSQQQQQQQQQQQQQQQMHMAAASQQFLAAQQQAQNAAYAAQQATSYVINPGQEAAPYMGMIAAAQMPYYGVAPWGMYPGNLIPQQGTQPRRPLTPSQQGAENQPYQVIPAFLDHTGSLLMGGPRTGTPMRLVSPAPVLVPPGATRAGPPPPQGPQLYQPQPQTAQQNLYSQQNGSSVGGLALNTSSLTGRRDSFDRSTSAFSPSTMDYTSSGVAAAANAVNSTVAQAAAAAAAAAAARGKWPGAMSGAASGAYGALGAGNASASPLGAPITPPPSAQSCLLGSRAPGAESRQRQQQQQQLAAVGLPATAAAAQAAVAAAANNMFGSNSSIFSNPLAIPGTAAVAAAAAAAAAANSRQVAATAAAAAAVAAAAGGVGGAPQPGRSRLLEDFRNQRYPNLQLRDLANHIVEFSQDQHGSRFIQQKLERATAAEKQMVFSEILAAAYSLMTDVFGNYVIQKFFEFGTPEQKNTLGMQVKGHVLQLALQMYGCRVIQKALESISPEQQQEIVHELDGHVLKCVKDQNGNHVVQKCIECVDPVALQFIINAFKGQVYSLSTHPYGCRVIQRILEHCTAEQTTPILDELHEHTEQLIQDQYGNYVIQHVLEHGKQEDKSILINSVRGKVLVLSQHKFASNVVEKCVTHATRGERTGLIDEVCTFNDNALHVMMKDQYANYVVQKMIDVSEPTQLKKLMTKIRPHMAALRKYTYGKHINAKLEKYYMKITNPITVGTGAGGVPAASSAAAVSSGATSASVTACTSGSSTTTTSTTNSLASPTICSVQENGSAMVVEPSSPDASESSSSVVSGAVNSSLGPIGPPTNGNVVL
partner: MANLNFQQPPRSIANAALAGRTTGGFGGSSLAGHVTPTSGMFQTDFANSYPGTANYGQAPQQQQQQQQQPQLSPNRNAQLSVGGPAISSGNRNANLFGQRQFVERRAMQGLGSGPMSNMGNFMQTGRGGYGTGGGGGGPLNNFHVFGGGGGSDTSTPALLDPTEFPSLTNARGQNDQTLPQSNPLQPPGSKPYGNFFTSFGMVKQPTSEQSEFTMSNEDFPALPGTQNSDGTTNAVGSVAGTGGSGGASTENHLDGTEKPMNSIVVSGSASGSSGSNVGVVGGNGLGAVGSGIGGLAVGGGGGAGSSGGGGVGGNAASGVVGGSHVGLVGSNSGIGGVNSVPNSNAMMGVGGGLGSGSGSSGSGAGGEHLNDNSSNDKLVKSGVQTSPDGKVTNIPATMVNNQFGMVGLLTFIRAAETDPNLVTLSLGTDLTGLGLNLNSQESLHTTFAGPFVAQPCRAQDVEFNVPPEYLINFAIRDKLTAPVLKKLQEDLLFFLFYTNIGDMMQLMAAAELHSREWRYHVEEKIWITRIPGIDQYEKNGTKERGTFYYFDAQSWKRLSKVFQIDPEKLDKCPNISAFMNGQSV

In one experiment the parent is B1. The conditions noted are these: with rga_drome Rga.
For the variant F1033A, the “effect of a mutation on the interaction” value is reported as “with no effect”.
Still for that read-out and setting: next, F1040A: “with no effect”; F1033A;F1040A: “decreasing interaction strength”.

The variants in a further experiment derive from B1. The conditions noted are these: with rga_drome Rga. The source holds these as a separate data set.
With F1033A;F1040A, the “effect of a mutation on the interaction” value is listed as “decreasing interaction strength”.
